# Results published in US20250320281A1.
# Changes are numbered by the printed parent chain.
# B1: PGT-125 (5123_A06) (antibody, V domains shown)
# VH: QSQLQESGPRLVEASETLSLTCNVSGESTGACTYFWGWVRQAPGKGLEWIGSLSHCQSFWGSGWTFHNPSLKSRLTISLDTPKNQVFLKLTSLTAADTATYYCARFDGEVLVYNHWPKPAWVDLWGRGIPVTVSS
# VL: QSALTQPPSASGSPGQSITISCNGTATNFVSWYQQFPDKAPKLIIFGVDKRPPGVPDRFSGSRSGTTASLTVSRLQTDDEAVYYCGSLVGNWDVIFGGGTTLTVL
# B2: PGT-123 (4858_P08) (antibody, V domains shown)
# VH: QLHLQESGPGLVKPPETLSLTCSVSGASINDAYWSWIRQSPGKRPEWVGYVHHSGDTNYNPSLKRRVTFSLDTAKNEVSLKLVDLTAADSATYFCARALHGKRIYGIVALGELFTYFYMDVWGKGTAVTVSS
# VL: SSMSVSPGETAKISCGKESIGSRAVQWYQQKPGQPPSLIIYNNQDRPAGVPERFSASPDFRPGTTATLTITNVDAEDEADYYCHIYDARGGTNWVFDRGTTLTVL
# B3: PGT-126 (5141_B17) (antibody, V domains shown)
# VH: QPQLQESGPGLVEASETLSLTCTVSGDSTAACDYFWGWVRQPPGKGLEWIGGLSHCAGYYNTGWTYHNPSLKSRLTISLDTPKNQVFLKLNSVTAADTAIYYCARFDGEVLVYHDWPKPAWVDLWGRGTLVTVSS
# VL: QSALTQPPSASGSPGQSISISCTGTSNRFVSWYQQHPGKAPKLVIYGVNKRPSGVPDRFSGSKSGNTASLTVSGLQTDDEAVYYCSSLVGNWDVIFGGGTKLTVL
# B4: PGT-127 (5145_B14) (antibody, V domains shown)
# VH: QPQLQESGPGLVEASETLSLTCTVSGDSTGRCNYFWGWVRQPPGKGLEWIGSLSHCRSYYNTDWTYHNPSLKSRLTISLDTPKNQVFLRLTSVTAADTATYYCARFGGEVLVYRDWPKPAWVDLWGRGTLVVTVS
# VL: B3 VL with S19T, R28N, H36Y, G47E, N66S, T77A, A81G
# B5: 5366_P21 (PGT-136) (antibody, V domains shown)
# VH: QLQLQESGPGLVKPSETLSLTCTVSGGSMRGTDWGENDFHYGWIRQSSAKGLEWIGSIHWRGRTTHYKTSFRSRATLSIDTSNNRFSLTFSFVTAADTAVYYCARHKYHDIFRVVPVAGWFDPWGQGLLVTVSS
# VL: EIVMTQSPPTLSVSPGETATLSCRASQNVKNNLAWYQLKPGQAPRLLIFDASSRAGGIPDRFSGSGYGTDFTLTVNSVQSEDFGDYFCQQYEEWPRTFGQGTKVDIK
# Target: HIV-1 Env of isolate MGRM-AE-001 (pseudovirus) (HIV-1)
# Test: cell-based or functional assay
row,Binder,"IC50 (µg/mL), pseudovirus neutralization"
1,B1,2.95 µg/mL
2,B2,> 50 µg/mL
3,B3,9.68 µg/mL
4,B4,> 50 µg/mL

# Target: HIV-1 Env of isolate MGRM-A-008 (pseudovirus) (HIV-1)
# Test: cell-based or functional assay
row,Binder,"IC50 (µg/mL), pseudovirus neutralization"
1,B1,> 50 µg/mL
2,B2,> 50 µg/mL
3,B3,> 50 µg/mL
4,B4,> 50 µg/mL

# Target: HIV-1 Env of isolate CMU02 (pseudovirus) (HIV-1)
# Test: cell-based or functional assay
row,Binder,"IC50 (µg/mL), pseudovirus neutralization"
1,B1,> 50 µg/mL
2,B2,> 50 µg/mL
3,B3,> 50 µg/mL
4,B4,> 50 µg/mL

# Target: HIV-1 Env of isolate 92RW008 (pseudovirus) (HIV-1)
# Test: cell-based or functional assay
row,Binder,"IC50 (µg/mL), pseudovirus neutralization"
1,B1,0.004 µg/mL
2,B2,0.003 µg/mL
3,B3,0.008 µg/mL
4,B4,0.012 µg/mL

# Target: HIV-1 Env of isolate 93UG077 (pseudovirus) (HIV-1)
# Test: cell-based or functional assay
row,Binder,"IC50 (µg/mL), pseudovirus neutralization"
1,B1,0.012 µg/mL
2,B2,0.028 µg/mL
3,B3,0.02 µg/mL
4,B4,0.055 µg/mL

# Target: HIV-1 Env of isolate MGRM-A-010 (pseudovirus) (HIV-1)
# Test: cell-based or functional assay
row,Binder,"IC50 (µg/mL), pseudovirus neutralization"
1,B1,0.004 µg/mL
2,B2,0.705 µg/mL
3,B3,0.002 µg/mL
4,B4,0.017 µg/mL

# Target: HIV-1 Env of isolate 92WR021 (pseudovirus) (HIV-1)
# Test: cell-based or functional assay
row,Binder,"IC50 (µg/mL), pseudovirus neutralization"
1,B1,0.005 µg/mL
2,B2,0.005 µg/mL
3,B3,0.006 µg/mL
4,B4,0.011 µg/mL

# Target: HIV-1 Env of isolate 92WR020 (pseudovirus) (HIV-1)
# Test: cell-based or functional assay
row,Binder,"IC50 (µg/mL), pseudovirus neutralization"
1,B1,0.004 µg/mL
2,B2,0.002 µg/mL
3,B3,0.006 µg/mL
4,B4,0.01 µg/mL

# Target: HIV-1 Env of isolate 92UG037 (pseudovirus) (HIV-1)
# Test: cell-based or functional assay
row,Binder,"IC50 (µg/mL), pseudovirus neutralization"
1,B1,0.005 µg/mL
2,B2,0.023 µg/mL
3,B3,0.011 µg/mL
4,B4,0.014 µg/mL

# Target: HIV-1 Env of isolate MGRM-AE-003 (pseudovirus) (HIV-1)
# Test: cell-based or functional assay
row,Binder,"IC50 (µg/mL), pseudovirus neutralization"
1,B1,0.092 µg/mL
2,B2,> 50 µg/mL
3,B3,> 50 µg/mL
4,B4,> 50 µg/mL

# Target: HIV-1 Env of isolate 93WR029 (pseudovirus) (HIV-1)
# Test: cell-based or functional assay
row,Binder,"IC50 (µg/mL), pseudovirus neutralization"
1,B1,> 50 µg/mL
2,B2,> 50 µg/mL
3,B3,> 50 µg/mL
4,B4,> 50 µg/mL

# Target: HIV-1 Env of isolate VLGCA1 (pseudovirus) (HIV-1)
# Test: cell-based or functional assay
row,Binder,"IC50 (µg/mL), pseudovirus neutralization"
1,B1,0.078 µg/mL
2,B2,> 50 µg/mL
3,B3,> 50 µg/mL
4,B4,> 50 µg/mL

# Target: HIV-1 Env of isolate 92WR009 (pseudovirus) (HIV-1)
# Test: cell-based or functional assay
row,Binder,"IC50 (µg/mL), pseudovirus neutralization"
1,B1,0.144 µg/mL
2,B2,15.7 µg/mL
3,B3,> 50 µg/mL
4,B4,> 50 µg/mL

# Target: HIV-1 Env of isolate JR-CSF (pseudovirus) (HIV-1) (UniProt P20871)
# Test: cell-based or functional assay
row,Binder,Primary Neutralization Index (B cell culture supernatant)
1,B5,1.1

# Target: HIV-1 Env of isolate MGRM-C-026 (pseudovirus) (HIV-1)
# Test: cell-based or functional assay
row,Binder,Primary Neutralization Index (B cell culture supernatant)
1,B5,6.2

# Target: HIV-1 Env of isolate 94UG103 (pseudovirus) (HIV-1)
# Test: cell-based or functional assay
row,Binder,"IC50 (µg/mL), pseudovirus neutralization"
1,B1,0.008 µg/mL
2,B2,0.678 µg/mL
3,B3,0.008 µg/mL
4,B4,0.017 µg/mL

# Target: HIV-1 Env of isolate 92UG031 (pseudovirus) (HIV-1)
# Test: cell-based or functional assay
row,Binder,"IC50 (µg/mL), pseudovirus neutralization"
1,B1,> 50 µg/mL
2,B2,> 50 µg/mL
3,B3,> 50 µg/mL
4,B4,> 50 µg/mL

# Target: HIV-1 Env of isolate MGRM-A-012 (pseudovirus) (HIV-1)
# Test: cell-based or functional assay
row,Binder,"IC50 (µg/mL), pseudovirus neutralization"
1,B1,0.177 µg/mL
2,B2,0.192 µg/mL
3,B3,0.097 µg/mL
4,B4,0.105 µg/mL

# Target: HIV-1 Env of isolate MGRM-A-013 (pseudovirus) (HIV-1)
# Test: cell-based or functional assay
row,Binder,"IC50 (µg/mL), pseudovirus neutralization"
1,B1,0.014 µg/mL
2,B2,0.565 µg/mL
3,B3,0.006 µg/mL
4,B4,0.029 µg/mL

# Target: HIV-1 Env of isolate MGRM-A-009 (pseudovirus) (HIV-1)
# Test: cell-based or functional assay
row,Binder,"IC50 (µg/mL), pseudovirus neutralization"
1,B1,0.009 µg/mL
2,B2,0.004 µg/mL
3,B3,0.004 µg/mL
4,B4,0.013 µg/mL

# Target: HIV-1 Env of isolate MGRM-A-014 (pseudovirus) (HIV-1)
# Test: cell-based or functional assay
row,Binder,"IC50 (µg/mL), pseudovirus neutralization"
1,B1,13.9 µg/mL
2,B2,0.003 µg/mL
3,B3,0.01 µg/mL
4,B4,0.24 µg/mL

# Target: HIV-1 Env of isolate MGRM-A-001 (pseudovirus) (HIV-1)
# Test: cell-based or functional assay
row,Binder,"IC50 (µg/mL), pseudovirus neutralization"
1,B1,12.4 µg/mL
2,B2,> 50 µg/mL
3,B3,> 50 µg/mL
4,B4,> 50 µg/mL

# Target: HIV-1 Env of isolate MGRM-A-006 (pseudovirus) (HIV-1)
# Test: cell-based or functional assay
row,Binder,"IC50 (µg/mL), pseudovirus neutralization"
1,B1,> 50 µg/mL
2,B2,> 50 µg/mL
3,B3,> 50 µg/mL
4,B4,> 50 µg/mL

# Target: HIV-1 Env of isolate 92TH021 (pseudovirus) (HIV-1)
# Test: cell-based or functional assay
row,Binder,"IC50 (µg/mL), pseudovirus neutralization"
1,B1,0.006 µg/mL
2,B2,> 50 µg/mL
3,B3,0.197 µg/mL
4,B4,> 50 µg/mL

# Target: HIV-1 Env of isolate MGRM-A-002 (pseudovirus) (HIV-1)
# Test: cell-based or functional assay
row,Binder,"IC50 (µg/mL), pseudovirus neutralization"
1,B1,0.013 µg/mL
2,B2,0.011 µg/mL
3,B3,0.015 µg/mL
4,B4,9.42 µg/mL

# Target: HIV-1 Env of isolate MGRM-A-011 (pseudovirus) (HIV-1)
# Test: cell-based or functional assay
row,Binder,"IC50 (µg/mL), pseudovirus neutralization"
1,B1,> 50 µg/mL
2,B2,> 50 µg/mL
3,B3,> 50 µg/mL
4,B4,> 50 µg/mL

# Target: HIV-1 Env of isolate MGRM-AE-002 (pseudovirus) (HIV-1)
# Test: cell-based or functional assay
row,Binder,"IC50 (µg/mL), pseudovirus neutralization"
1,B1,> 50 µg/mL
2,B2,> 50 µg/mL
3,B3,> 50 µg/mL
4,B4,> 50 µg/mL

# Target: HIV-1 Env of isolate MGRM-A-004 (pseudovirus) (HIV-1)
# Test: cell-based or functional assay
row,Binder,"IC50 (µg/mL), pseudovirus neutralization"
1,B1,> 50 µg/mL
2,B2,> 50 µg/mL
3,B3,> 50 µg/mL
4,B4,> 50 µg/mL

# Target: HIV-1 Env of isolate MGRM-A-003 (pseudovirus) (HIV-1)
# Test: cell-based or functional assay
row,Binder,"IC50 (µg/mL), pseudovirus neutralization"
1,B1,> 50 µg/mL
2,B2,0.495 µg/mL
3,B3,> 50 µg/mL
4,B4,> 50 µg/mL

# Target: HIV-1 Env of isolate 92WR026 (pseudovirus) (HIV-1)
# Test: cell-based or functional assay
row,Binder,"IC50 (µg/mL), pseudovirus neutralization"
1,B1,0.007 µg/mL
2,B2,0.012 µg/mL
3,B3,0.008 µg/mL
4,B4,0.024 µg/mL

# Target: HIV-1 Env of isolate 94KE105 (pseudovirus) (HIV-1)
# Test: cell-based or functional assay
row,Binder,"IC50 (µg/mL), pseudovirus neutralization"
1,B1,0.004 µg/mL
2,B2,0.024 µg/mL
3,B3,0.006 µg/mL
4,B4,0.023 µg/mL

# Target: HIV-1 Env of isolate 92WR024 (pseudovirus) (HIV-1)
# Test: cell-based or functional assay
row,Binder,"IC50 (µg/mL), pseudovirus neutralization"
1,B1,35.5 µg/mL
2,B2,> 50 µg/mL
3,B3,42 µg/mL
4,B4,> 50 µg/mL

# Target: HIV-1 Env of isolate MGRM-A-007 (pseudovirus) (HIV-1)
# Test: cell-based or functional assay
row,Binder,"IC50 (µg/mL), pseudovirus neutralization"
1,B1,> 50 µg/mL
2,B2,> 50 µg/mL
3,B3,> 50 µg/mL
4,B4,> 50 µg/mL

# Target: HIV-1 Env of isolate 93IN905 (pseudovirus) (HIV-1)
# Test: cell-based or functional assay
row,Binder,Primary Neutralization Index (B cell culture supernatant)
1,B5,5.5

# Target: HIV-1 Env of isolate MGRM-A-005 (pseudovirus) (HIV-1)
# Test: cell-based or functional assay
row,Binder,"IC50 (µg/mL), pseudovirus neutralization"
1,B1,> 50 µg/mL
2,B2,> 50 µg/mL
3,B3,> 50 µg/mL
4,B4,> 50 µg/mL
